Results: patent US20260232732A1 (FUNDACI INSTITUT DE RECERCA CONTRA LA LEUC MIA JOSEP …, published 2026)
Where no end group is shown, it is not given here. The star is where a group is joined. Biotin = O=C1N[C@H]2[C@H](CS[C@H]2CCCCC(=O)*)N1

What was measured:
[1] = biological target: T1, biotin-peptide SSMEDYVNFN (human); assay: ELISA biotin-peptide; scFv 5 ug/mL; repII
T1 peptide: Biotin-SSMEDYVNFN
Experimental: (§1) The peptides were synthesized naked or with a N-terminal Biotin modification with a purity of >98%. All four scFvs were verified by ELISA that can be detected with anti-His antibodies. ELISA was performed for scFv-peptide binding validation. Briefly, naked peptides were coated (50 μg/mL) in 0.58M carbonate-bicarbonate buffer pH9.5, 100 μL/well, 4° C. O/N. Then after blocking (3% BSA-PBS, 300 μL/well 37° C. 1.5 h) and washing (PBS+Tween-20 0.05% v/v (0.05% PBST), wells were incubated with each purified scFv antibody at concentration of 1 μg/mL in PBS at 37° C. 1 h. After washing (0.05% PBST), wells were incubated with secondary antibodies (goat anti-His IgG-HRP) in PBS, 37° C., 30 min. After washing, and incubation with TMB substrate, reactions were stopped with 2M HCl and reading was quantified at OD450.
(§2) ELISA with biotin-conjugated peptides (5 μg/mL) was performed very similar to described above with minor modifications.
(§3) A full curve ELISA was performed for each positive scFv/biotin-peptide pair in order to confirm previous results. Tables 15-17 show ELISA results of the dose-dependent full curve for each positive peptide with scFv “CCR9_HUM”, “Comp-2” and “Comp-3”, respectively.

[2] = biological target: T2, biotin-peptide MEDYVNFNFT (human); assay: ELISA biotin-peptide; scFv 5 ug/mL; repII
T2 peptide: Biotin-MEDYVNFNFT
Experimental: as §1, §2, §3

[3] = biological target: T3, biotin-peptide SMEDYVNFNF (human); assay: ELISA biotin-peptide; scFv 5 ug/mL; repII
T3 peptide: Biotin-SMEDYVNFNF
Experimental: as §1, §2, §3

[4] = biological target: T4, biotin-peptide TSSMEDYVNF (human); assay: ELISA biotin-peptide; scFv 5 ug/mL; repII
T4 peptide: Biotin-TSSMEDYVNF
Experimental: as §1, §2, §3

[5] = biological target: T1, biotin-peptide SSMEDYVNFN; assay: ELISA biotin-peptide; scFv 0.625 ug/mL; repII
Experimental: as §1, §2, §3

[6] = biological target: T2, biotin-peptide MEDYVNFNFT; assay: ELISA biotin-peptide; scFv 0.625 ug/mL; repII
Experimental: as §1, §2, §3

[7] = biological target: T3, biotin-peptide SMEDYVNFNF; assay: ELISA biotin-peptide; scFv 0.625 ug/mL; repII
Experimental: as §1, §2, §3

[8] = biological target: T4, biotin-peptide TSSMEDYVNF; assay: ELISA biotin-peptide; scFv 0.625 ug/mL; repII
Experimental: as §1, §2, §3

[9] = biological target: T5, Peptide 4-BSA (SMEDYVNFNF-C conjugated to BSA) (human); assay: ELISA; Ab 0.0625 ug/mL; repI
T5 peptide: SMEDYVNFNFC(BSA)
Experimental: (§4) In brief, plates with each non-conjugated peptide (50 μg/mL) or BSA-conjugated peptide (5 μg/mL) were coated in 0.58M carbonate-bicarbonate buffer pH9.5, 100 μL/well, at 4° C. […] After washing, wells were incubated with the 3, 3′,5,5′-Tetramethylbenzidine (TMB) HRP substrate and reactions were stopped with 2M HCl and OD450 was recorded.

[10] = biological target: T6, BSA (negative control coating) (bovine, UniProt P02769 25-607); assay: ELISA; Ab 0.0625 ug/mL; repI
T6 construct: also called Negative control BSA
Experimental: as §4

[11] = biological target: T7, Peptide 3-BSA (SSMEDYVNFN-C conjugated to BSA) (human); assay: ELISA; Ab 0.0625 ug/mL; repI
T7 peptide: SSMEDYVNFNC(BSA)
Experimental: as §4

[12] = biological target: T8, Peptide 2, non-conjugated (GSESTSSMED-C) (human); assay: ELISA; Ab 0.0625 ug/mL; repI
T8 construct: With the extra C-terminal Cys
T8 peptide: GSESTSSMEDC
Experimental: as §4

[13] = biological target: T9, Peptide 3, non-conjugated (SSMEDYVNFN-C) (human); assay: ELISA; Ab 0.0625 ug/mL; repI
T9 construct: With the extra C-terminal Cys
T9 peptide: SSMEDYVNFNC
Experimental: as §4

[14] = biological target: T10, Peptide 1-BSA (MADDYGSEST-C conjugated to BSA) (human); assay: ELISA; Ab 0.0625 ug/mL; repI
T10 peptide: MADDYGSESTC(BSA)
Experimental: as §4

[15] = biological target: T11, Peptide 4, non-conjugated (SMEDYVNFNF-C) (human); assay: ELISA; Ab 0.0625 ug/mL; repI
T11 construct: With the extra C-terminal Cys
T11 peptide: SMEDYVNFNFC
Experimental: as §4

[16] = biological target: T12, Peptide 1, non-conjugated (MADDYGSEST-C) (human); assay: ELISA; Ab 0.0625 ug/mL; repI
T12 construct: With the extra C-terminal Cys
T12 peptide: MADDYGSESTC
Experimental: as §4

[17] = biological target: T13, antigen peptide-BSA (immunisation peptide #1 MADDYGSESTSSMEDYVNFNF-C conjugated to BSA) (human, extra C-terminal Cys conjugated to BSA); assay: ELISA; Ab 0.0625 ug/mL; repI
T13 construct: also called Positive control antigen peptide-BSA; MADDY peptide
T13 peptide: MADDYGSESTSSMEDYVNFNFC
Experimental: as §4

[18] = biological target: T14, Peptide 2-BSA (GSESTSSMED-C conjugated to BSA) (human); assay: ELISA; Ab 0.0625 ug/mL; repI
T14 peptide: GSESTSSMEDC(BSA)
Experimental: as §4

[19] = biological target: T5, Peptide 4-BSA (SMEDYVNFNF-C conjugated …); assay: ELISA; Ab 1 ug/mL; repI
Experimental: as §4

[20] = biological target: T6, BSA (negative control coating); assay: ELISA; Ab 1 ug/mL; repI
Experimental: as §4

[21] = biological target: T8, Peptide 2, non-conjugated (GSESTSSMED-C); assay: ELISA; Ab 1 ug/mL; repI
Experimental: as §4

[22] = biological target: T9, Peptide 3, non-conjugated (SSMEDYVNFN-C); assay: ELISA; Ab 1 ug/mL; repI
Experimental: as §4

[23] = biological target: T11, Peptide 4, non-conjugated (SMEDYVNFNF-C); assay: ELISA; Ab 1 ug/mL; repI
Experimental: as §4

[24] = biological target: T12, Peptide 1, non-conjugated (MADDYGSEST-C); assay: ELISA; Ab 1 ug/mL; repI
Experimental: as §4

[25] = biological target: T14, Peptide 2-BSA (GSESTSSMED-C conjugated …); assay: ELISA; Ab 1 ug/mL; repI
Experimental: as §4

[26] = biological target: T7, Peptide 3-BSA (SSMEDYVNFN-C conjugated …); assay: ELISA; Ab 1 ug/mL; repII
Experimental: as §4

T6 sequence (P02769 25-607 limits assumed): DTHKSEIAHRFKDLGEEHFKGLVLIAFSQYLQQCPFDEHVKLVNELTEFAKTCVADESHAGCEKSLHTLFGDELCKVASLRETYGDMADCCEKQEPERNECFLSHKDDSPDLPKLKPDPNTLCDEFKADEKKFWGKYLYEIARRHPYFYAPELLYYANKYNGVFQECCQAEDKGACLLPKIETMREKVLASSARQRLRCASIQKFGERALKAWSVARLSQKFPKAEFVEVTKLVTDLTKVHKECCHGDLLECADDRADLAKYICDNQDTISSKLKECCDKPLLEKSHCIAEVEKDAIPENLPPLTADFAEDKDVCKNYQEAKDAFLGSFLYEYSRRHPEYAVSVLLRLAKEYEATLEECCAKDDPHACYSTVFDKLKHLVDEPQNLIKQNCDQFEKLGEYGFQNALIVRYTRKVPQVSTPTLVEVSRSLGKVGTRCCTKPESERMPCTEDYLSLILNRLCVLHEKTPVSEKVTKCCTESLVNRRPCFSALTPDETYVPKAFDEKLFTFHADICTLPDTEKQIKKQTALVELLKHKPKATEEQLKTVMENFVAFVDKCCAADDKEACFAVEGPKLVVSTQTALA

B1: CCR9_HUM2 scFv (humanized anti-CCR9 scFv, SEQ ID NO: 17 with C-terminal 6xHis tag) (scFv)
scFv: QVQLVQSGAEVKKPGASVKVSCTASGYSFTDYIIYWVKQAHGQSLEWMGYIDPNNYNTRYSQKFQGKVTITVDKSSTSAYMELNSLTSDDTAVYYCARDVYWGQGTTVTVSSGGGGSGGGGSGGGGSGGGGSDVVMTQTPLSLSVTPGQPASISCRSSQSLVHSNGKTYLQWYLQKPGQSPKLLIYKVSNRFSGVPDRFSGSGSGTDFTLKISRVEAEDVGVYFCAQSTHVWTFGGGTKVEIKRAHHHHHH
OD450 [1]: 1.82 OD
OD450 [2]: 1.72 OD
OD450 [3]: 1.79 OD
OD450 [4]: 1.38 OD
OD450 [5]: 1.74 OD
OD450 [6]: 1.46 OD
OD450 [7]: 1.67 OD
OD450 [8]: 0.67 OD

B2: anti-CCR9 antibody clone 115 (murine, from hybridoma #115) (antibody, V domains shown)
VH: QVQLKQSGPELVKPGTSVRVSCTASGYSFTDYIIYWVKQSHGRSLEWIGYIDPNNYNTRYSQKFKGKATLTVDKSSTSAFMHLNSLTSDDSAVYYCARDVYWGQGTTLTVSS
VL: DVVMTQTPLSLTVSLGDQASISCRSSQSLVHSNGKTYLQWYLQKPGQSPKLLIYKVSNRFSGVPDRFSGSGSGTDFTLKISRVEAEDLGVYFCAQSTHVWTFGGGTKLEIKR
notes: Mouse IgG1
OD450 [9]: 1.98 OD
OD450 [10]: 0.01 OD
OD450 [11]: 1.88 OD
OD450 [12]: 0.01 OD
OD450 [13]: 1.83 OD
OD450 [14]: 0.01 OD
OD450 [15]: 1.14 OD
OD450 [16]: 0.01 OD
OD450 [17]: 1.84 OD
OD450 [18]: 0.01 OD
OD450 [19]: 2.73 OD
OD450 [20]: 0.02 OD
OD450 [21]: 0.03 OD
OD450 [22]: 2.06 OD
OD450 [23]: 2.49 OD
OD450 [24]: 0.02 OD
OD450 [25]: 0.03 OD
OD450 [26]: 2.16 OD
